Assay results reported in patent US20220332804A1 (CSL INNOVATION, published 2022).

Key:
Test in all cases: SPR; KD relative to WT C2;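 also: biacore SPR at 37 °C, anti-C2 mAbs captured on an anti-human IgG chip, alanine or serine C2 surface mutants tested, KD from 1:1 fit compared with wild-type C2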
[1] = molecular target: T1, human C2 E433A (human, UniProt P06681 21-752)
T1 sequence: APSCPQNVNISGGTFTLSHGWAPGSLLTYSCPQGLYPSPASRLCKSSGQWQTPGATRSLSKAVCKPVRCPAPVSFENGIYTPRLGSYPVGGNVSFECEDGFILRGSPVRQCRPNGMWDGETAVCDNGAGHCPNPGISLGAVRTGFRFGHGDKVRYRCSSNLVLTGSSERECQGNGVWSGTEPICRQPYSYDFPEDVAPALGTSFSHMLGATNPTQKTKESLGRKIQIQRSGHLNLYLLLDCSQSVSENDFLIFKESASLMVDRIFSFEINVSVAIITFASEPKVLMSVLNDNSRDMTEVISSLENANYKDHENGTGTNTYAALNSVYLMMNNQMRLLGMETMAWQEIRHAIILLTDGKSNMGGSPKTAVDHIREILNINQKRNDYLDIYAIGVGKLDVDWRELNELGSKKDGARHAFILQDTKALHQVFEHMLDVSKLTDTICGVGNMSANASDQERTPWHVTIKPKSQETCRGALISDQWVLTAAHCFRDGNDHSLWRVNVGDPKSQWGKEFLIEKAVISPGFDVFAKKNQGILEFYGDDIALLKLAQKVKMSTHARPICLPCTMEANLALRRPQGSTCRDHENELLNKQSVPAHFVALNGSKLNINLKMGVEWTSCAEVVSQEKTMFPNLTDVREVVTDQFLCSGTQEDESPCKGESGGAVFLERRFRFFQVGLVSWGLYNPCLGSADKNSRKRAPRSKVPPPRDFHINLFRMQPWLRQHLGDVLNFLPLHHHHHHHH

[2] = molecular target: T2, human C2 R519A (human, UniProt P06681 21-752)
T2 sequence: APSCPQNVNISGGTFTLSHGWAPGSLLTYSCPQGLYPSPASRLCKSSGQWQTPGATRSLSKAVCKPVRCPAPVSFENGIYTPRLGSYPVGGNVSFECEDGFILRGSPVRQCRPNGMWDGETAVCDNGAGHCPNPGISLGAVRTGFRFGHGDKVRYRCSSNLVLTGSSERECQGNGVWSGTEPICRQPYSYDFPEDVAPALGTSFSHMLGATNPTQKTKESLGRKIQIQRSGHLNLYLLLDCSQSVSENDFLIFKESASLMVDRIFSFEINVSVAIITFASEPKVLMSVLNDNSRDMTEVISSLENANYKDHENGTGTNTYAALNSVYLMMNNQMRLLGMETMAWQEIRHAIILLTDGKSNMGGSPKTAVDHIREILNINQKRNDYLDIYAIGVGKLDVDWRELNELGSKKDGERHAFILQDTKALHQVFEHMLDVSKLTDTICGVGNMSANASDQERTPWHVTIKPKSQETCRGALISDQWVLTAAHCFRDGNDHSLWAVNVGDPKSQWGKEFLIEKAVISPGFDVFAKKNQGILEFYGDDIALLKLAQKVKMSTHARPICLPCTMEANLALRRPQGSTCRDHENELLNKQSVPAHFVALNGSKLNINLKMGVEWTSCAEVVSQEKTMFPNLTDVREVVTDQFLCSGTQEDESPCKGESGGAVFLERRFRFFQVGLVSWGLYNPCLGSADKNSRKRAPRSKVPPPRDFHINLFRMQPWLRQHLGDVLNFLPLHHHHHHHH

[3] = molecular target: T3, human C2 K457A (human, UniProt P06681 21-752)
T3 sequence: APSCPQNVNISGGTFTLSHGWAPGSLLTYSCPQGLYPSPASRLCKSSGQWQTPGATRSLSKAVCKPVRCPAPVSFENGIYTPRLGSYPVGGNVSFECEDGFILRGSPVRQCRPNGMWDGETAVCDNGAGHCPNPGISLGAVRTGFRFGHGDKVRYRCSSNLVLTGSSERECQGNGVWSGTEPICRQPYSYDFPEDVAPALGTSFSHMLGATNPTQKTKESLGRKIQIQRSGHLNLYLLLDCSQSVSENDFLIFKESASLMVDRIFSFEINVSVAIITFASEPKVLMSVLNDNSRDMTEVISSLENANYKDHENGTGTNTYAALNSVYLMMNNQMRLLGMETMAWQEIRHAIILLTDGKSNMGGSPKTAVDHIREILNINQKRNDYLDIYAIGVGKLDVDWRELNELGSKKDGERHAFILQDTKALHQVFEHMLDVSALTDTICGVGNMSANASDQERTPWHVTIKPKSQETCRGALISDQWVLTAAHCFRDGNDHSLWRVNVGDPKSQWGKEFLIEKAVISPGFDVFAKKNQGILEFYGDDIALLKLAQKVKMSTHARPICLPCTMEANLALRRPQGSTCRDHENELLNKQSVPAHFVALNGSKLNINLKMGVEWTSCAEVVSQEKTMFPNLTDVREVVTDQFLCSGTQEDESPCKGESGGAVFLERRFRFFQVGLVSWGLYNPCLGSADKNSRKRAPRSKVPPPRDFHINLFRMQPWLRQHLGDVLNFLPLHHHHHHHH

[4] = molecular target: T4, human C2 L620A (human, UniProt P06681 21-752)
T4 sequence: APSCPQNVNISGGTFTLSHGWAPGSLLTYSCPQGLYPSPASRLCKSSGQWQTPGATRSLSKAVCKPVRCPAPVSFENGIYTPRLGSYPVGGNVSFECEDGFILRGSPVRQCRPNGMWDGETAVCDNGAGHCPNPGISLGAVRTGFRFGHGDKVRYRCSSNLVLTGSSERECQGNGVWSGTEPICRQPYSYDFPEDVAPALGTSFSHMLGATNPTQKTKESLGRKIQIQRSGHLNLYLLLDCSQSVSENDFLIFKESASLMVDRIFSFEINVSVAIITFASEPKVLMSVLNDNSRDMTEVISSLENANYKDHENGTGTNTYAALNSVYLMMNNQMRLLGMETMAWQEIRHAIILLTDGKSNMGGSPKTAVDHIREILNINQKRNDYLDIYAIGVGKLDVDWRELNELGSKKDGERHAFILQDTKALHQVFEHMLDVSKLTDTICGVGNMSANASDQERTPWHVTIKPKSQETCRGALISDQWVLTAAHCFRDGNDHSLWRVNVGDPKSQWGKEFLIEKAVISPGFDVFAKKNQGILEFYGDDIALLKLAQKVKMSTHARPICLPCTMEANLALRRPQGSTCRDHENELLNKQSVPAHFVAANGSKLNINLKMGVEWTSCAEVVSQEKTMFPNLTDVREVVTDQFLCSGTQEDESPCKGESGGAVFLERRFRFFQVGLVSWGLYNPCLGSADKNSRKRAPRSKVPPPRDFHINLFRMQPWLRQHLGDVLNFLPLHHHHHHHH

Measured: Fold diff

B1: RF16-214 (antibody, V domains shown)
VH: EVQLLESGGGLVQPGGSLRLSCAASGFTFSWYQMMWVRQAPGKGLEWVSRIYPSGGGTAYADSVKGRFTISRDNSKNTLYLQMNSLRAEDTAVYYCARDAGYGDNWGQGTLVTVSS
VL: QSALTQPPSVSVSPGQTASITCSGDKLGEKYASWYQQKAGQSPVMVIYQDRKRPSGIPERFSGSNSGNTATLTISGTQAMDEADYYCQAWDTRAVVFGGGTKLTVLG
1 fold: [1] | [2] | [3] | [4]
